Numbering of substitutions follows the chain as printed.
B1: Wild type NT-3 (Neurotrophin 3, mature form) (ligand)
chain: YAEHKSHRGEYSVCDSESLWVTDKSSAIDIRGHQVTVLGEIKTGNSPVKQYFYETRCKEARPVKNGCRGIDDKHWNSQCKTSQTYVRALTSENNKLVGWRWIRIDTSCVCALSRKIGRT
B2: Biotin-NT-3 (wild type NT-3 covalently linked to biotin) (ligand)
chain: B1 chain
modifications: biotin, site not given
B3: NT-3 mutant (SEQ ID NO: 23) (ligand)
chain: B1 chain with D15A, R114A, K115A

Assays:
TrkA (NIH-TrkA cells) [1] = assay: flow cytometry competition on NIH-TrkA cells; 20 nM Biotin-NT3 tracer, 3-fold excess unlabeled competitor; value is the Biotin-NT3 signal remaining
TrkA (NIH-TrkA cells) [2] = assay: flow cytometry competition on NIH-TrkA cells; 20 nM Biotin-NT3 tracer, 3-fold excess unlabeled competitor; value is the Biotin-NT3 binding remaining
TrkC (NIH-TrkC cells) [3] = assay: flow cytometry competition on NIH-TrkC cells; 20 nM Biotin-NT3 tracer, 200 nM unlabeled competitor; value is the Biotin-NT3 binding remaining
TrkC (NIH-TrkC cells) [4] = assay: flow cytometry competition on NIH-TrkC cells; 20 nM Biotin-NT3 tracer, 200 nM unlabeled competitor; value is the Biotin-NT3 signal remaining
TrkC (NIH-TrkC cells) [5] = assay: cell-based or functional assay
TrkA (NIH-TrkA cells) [6] = assay: flow cytometry (fluorescent avidin) on NIH-TrkA cells; 20 nM Biotin-NT3, no competitor
p75 (NIH-p75 cells) [7] = assay: flow cytometry (fluorescent avidin) on NIH-p75 cells; 20 nM Biotin-NT3, no competitor
TrkC (NIH-TrkC cells) [8] = assay: flow cytometry (fluorescent avidin) on NIH-TrkC cells; 20 nM Biotin-NT3, no competitor
p75 (NIH-p75 cells) [9] = assay: flow cytometry competition on NIH-p75 cells; 20 nM Biotin-NT3 tracer, 200 nM unlabeled competitor; value is the Biotin-NT3 binding remaining
p75 (NIH-p75 cells) [10] = assay: flow cytometry competition on NIH-p75 cells; 20 nM Biotin-NT3 tracer, 200 nM unlabeled competitor; value is the Biotin-NT3 signal remaining

Row | Binder | NIH-TrkA MCF (TrkA (NIH-TrkA cells) [1]) | % of maximal binding to TrkA (TrkA (NIH-TrkA cells) [2]) | % of maximal binding to TrkC (TrkC (NIH-TrkC cells) [3]) | NIH-TrkC MCF (TrkC (NIH-TrkC cells) [4]) | % survival at 0.1 nM, TrkC-expressing cells in serum free media (TrkC (NIH-TrkC cells) [5]) | NIH-TrkA MCF (TrkA (NIH-TrkA cells) [6]) | NIH-p75 MCF (p75 (NIH-p75 cells) [7]) | NIH-TrkC MCF (TrkC (NIH-TrkC cells) [8]) | % of maximal binding to p75 (p75 (NIH-p75 cells) [9]) | NIH-p75 MCF (p75 (NIH-p75 cells) [10])
1 | B1 | 20 | 36% | 18% | 25 | 34% | – | – | – | – | –
2 | B2 | – | – | – | – | – | 38 | 76 | 93 | – | –
3 | B3 | 16 | – | 13% | – | – | – | – | – | 89% | 69

— patent US20190374606A1
